From patent US8252521B2, “Method of screening substance useful in treating disease with the use of GPR40 and phospholipase” (Eisai R&D Management Co., Ltd., priority 2005, dated 2012) come the findings set out here.

Holding throughout (type): cell-based
Conditions in all cases: forskolin 0.3 μM, 24 hours with sample

One experiment relates to GFP-SE302 cells. Put plainly: PLAP reporter transcription activity in GFP-SE302 control cells. Here is the method:
(§1) The GPR40-SE302 cells and GPR43-SE302 cells constructed in Examples 6 and 7 described above were suspended in a culture medium for measurement of transcription activity (DMEM containing FBS, which was heat-treated at 65° C. for 30 min, at a final concentration of 10%) and seeded onto a 96 well plate (Becton Dickinson, Co.) at 1×10^4 cells/well. In addition, as control cells, SE302 cells expressing green fluorescent protein (GFP, Invitrogen Corporation) (referred to as “GFP-SE302 cells” hereinafter) were used. Specifically, GFP-302 cells were prepared by obtaining a virus for expressing GFP using the method shown in Example 3 and 4, and transfecting SE302 cells with the virus using the method shown in Example 6. Cells were cultured for 24 hours after seeding, and forskolin prepared at a final concentration of 0.3 μM and a sample were added. Cells were cultured for another 24 hours, and 5 μL of the cell supernatant was recovered and transferred to a polypropylene 384-well white plate (Nalge Nunc International, Co.). Then, 20 μL of the assay buffer (280 mmol/L Na2CO3—NaHCO3, 8 mmol/L MgSO4, pH 10) and 25 μL of Lumiphos530 (Lumigen, Co.) were added. Following a 2-hour reaction at room temperature, chemiluminescence in each well was measured using a Fusion plate reader (Perkin Elmer, Co.) and was defined as the transcription activity. Based on these measured levels, stimulation/inhibition of transcription activity was calculated using the equation (I) shown below and described as [% of control]. Activities of the group with a sample added were calculated using the level of a control placed on each plate. [% of control]=(X−C)/(F−C)×100 (I) wherein,
(§2) X: PLAP transcription activity in the group added with a sample,
(§3) F: Mean level of transcription activity in 2 wells of a positive control (no sample added, stimulated with forskolin), and
(§4) C: Mean level of transcription activity in 2 wells of a negative control (no sample added, not stimulated with forskolin).

The target of the next experiment is T1, human GPR40 (Homo sapiens, UniProt O14842).
T1 construct: expressed in transfected cells; host or cells: SE302 cells (HEK293 clone carrying a CRE4-VIP promoter PLAP reporter), infected with retrovirus made from pBabeCL(GPR40)IH and selected with hygromycin
T1 sequence (O14842 whole entry): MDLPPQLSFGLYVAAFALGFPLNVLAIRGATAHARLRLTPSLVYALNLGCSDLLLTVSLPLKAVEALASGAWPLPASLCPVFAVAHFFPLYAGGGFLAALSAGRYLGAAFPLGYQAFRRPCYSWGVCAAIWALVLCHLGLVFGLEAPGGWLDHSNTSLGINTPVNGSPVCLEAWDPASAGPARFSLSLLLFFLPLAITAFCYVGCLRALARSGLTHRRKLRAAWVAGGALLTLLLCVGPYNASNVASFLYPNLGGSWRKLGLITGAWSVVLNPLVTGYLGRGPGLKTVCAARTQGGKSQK
Briefly: PLAP reporter transcription activity in GPR40-SE302 cells. The procedure:
as §1, §2, §3, §4

For another experiment, the target named is T2, human GPR43 (Homo sapiens, UniProt O15552).
T2 construct: expressed in transfected cells; host or cells: SE302 cells (HEK293 clone carrying a CRE4-VIP promoter PLAP reporter), infected with retrovirus made from pBabeCL(GPR43)IH and selected with hygromycin
T2 sequence (O15552 1-330): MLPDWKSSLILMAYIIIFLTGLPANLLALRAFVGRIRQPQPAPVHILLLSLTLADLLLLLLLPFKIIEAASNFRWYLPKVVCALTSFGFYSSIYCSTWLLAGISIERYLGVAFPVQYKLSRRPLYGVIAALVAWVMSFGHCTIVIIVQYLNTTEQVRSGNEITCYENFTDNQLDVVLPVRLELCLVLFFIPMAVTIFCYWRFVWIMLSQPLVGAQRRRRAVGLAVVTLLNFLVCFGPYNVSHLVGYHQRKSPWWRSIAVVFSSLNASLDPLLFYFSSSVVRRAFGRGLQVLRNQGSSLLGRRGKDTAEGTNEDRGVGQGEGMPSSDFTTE
Briefly: PLAP reporter transcription activity in GPR43-SE302 cells. The procedure:
as §1, §2, §3, §4

Consider “porcine pancreatic sPLA2: Phospholipase A2 from porcine pancreas, Sigma; primarily Group IB secretory phospholipase A2 (Swiss Prot P00592)”, for which the “PLAP activity in GFP-SE302 cells” value in the experiment on GFP-SE302 cells is on record as “no elevation of PLAP activity”. The “PLAP activity in GPR40-SE302 cells” value with human GPR40 is listed as “concentration dependent elevation of PLAP activity”. The “PLAP activity in GPR43-SE302 cells” value with human GPR43 is on record as “no elevation of PLAP activity”.

B1: mGX-sPLA2-His: purified mouse C-terminal His-tagged Group X secretory phospholipase A2, expressed in Sf9 cells (protein, UniProt Q9QXX3 29-151, looked up)
Group 10 secretory …: GLLELAGTLDCVGPRSPMAYMNYGCYCGLGGHGEPRDAIDWCCYHHDCCYSRAQDAGCSPKLDRYPWKCMDHHILCGPAENKCQELLCRCDEELAYCLAGTEYHLKYLFFPSILCEKDSPKCN
modifications: C-terminal His6 tag
notes: purified mouse C-terminal His-tagged Group X secretory phospholipase A2, expressed in Sf9 cells
For B1, the “PLAP activity in GFP-SE302 cells” value with GFP-SE302 cells is “no specific elevation of PLAP activity”. In addition, the “PLAP activity in GPR40-SE302 cells” value in the experiment with human GPR40 is “concentration dependent elevations of PLAP activity”.

B2: hGX-sPLA2-His: purified human C-terminal His-tagged Group X secretory phospholipase A2, expressed in Sf9 cells (protein, UniProt O15496 43-165, looked up)
Group 10 secretory …: GILELAGTVGCVGPRTPIAYMKYGCFCGLGGHGQPRDAIDWCCHGHDCCYTRAEEAGCSPKTERYSWQCVNQSVLCGPAENKCQELLCKCDQEIANCLAQTEYNLKYLFYPQFLCEPDSPKCD
modifications: C-terminal His6 tag
notes: purified human C-terminal His-tagged Group X secretory phospholipase A2, expressed in Sf9 cells
With B2, the “PLAP activity in GFP-SE302 cells” value in the experiment with GFP-SE302 cells is given as “no specific elevation of PLAP activity”. Further, the “PLAP activity in GPR40-SE302 cells” value with human GPR40 is “concentration dependent elevations of PLAP activity”.

B3: C-terminal FLAG tagged hGX-sPLA2: C-terminal FLAG-tagged human GX-sPLA2 (SEQ ID NO: 41), purified from silkworm pupa extract (protein, listed as Homo sapiens)
chain: MGPLPVCLPIMLLLLLPSLLLLLLLPGPGSGEASRILRVHRRGILELAGTVGCVGPRTPIAYMKYGCFCGLGGHGQPRDAIDWCCHGHDCCYTRAEEAGCSPKTERYSWQCVNQSVLCGPAENKCQELLCKCDQEIANCLAQTEYNLKYLFYPQFLCEPDSPKCDDYKDDDDK
modifications: C-terminal FLAG tag
As to B3, the “PLAP activity in GFP-SE302 cells” value with GFP-SE302 cells is listed as “no elevation of PLAP activity”. Further, the “PLAP activity in GPR40-SE302 cells” value in the experiment with human GPR40 was “concentration-dependent elevation of PLAP activity”. Besides, the “PLAP activity in GPR43-SE302 cells” value with human GPR43 is “no elevation of PLAP activity”.

B4: C-terminal FLAG tagged mGX-sPLA2: C-terminal FLAG-tagged mouse GX-sPLA2 (SEQ ID NO: 43), purified from Sf-9 culture supernatant (protein, listed as Mus musculus)
chain: MLLLLLLLLLGPGPGFSEATRRSHVYKRGLLELAGTLDCVGPRSPMAYMNYGCYCGLGGHGEPRDAIDWCCYHHDCCYSRAQDAGCSPKLDRYPWKCMDHHILCGPAENKCQELLCRCDEELAYCLAGTEYHLKYLFFPSILCEKDSPKCNDYKDDDDK
modifications: C-terminal FLAG tag
B4: in the experiment with GFP-SE302 cells, the “PLAP activity in GFP-SE302 cells” value was “no elevation of PLAP activity”. Further, in the experiment with human GPR40, the “PLAP activity in GPR40-SE302 cells” value is “concentration-dependent elevation of PLAP activity”. In addition, in the experiment with human GPR43, the “PLAP activity in GPR43-SE302 cells” value is listed as “no elevation of PLAP activity”.
